Results published in ChEMBL document CHEMBL4482315, “In vivo imaging of sulfotransferases” (2013).
Where “and” joins values, the source holds several entries; their conditions need not be identical. Identical values can stand only once.

Columns and labels:
not read = substrate: Oc1ccc2ccccc2c1; assay: not read
[1] = substrate: COc1ccc(-c2nc3ccc(O)cc3s2)cc1; assay: (§1) Substrate activity at SULT1E1 (unknown origin) expressed in baculovirus infected Sf9 cells assessed as substrate Km incubated for 15 mins using [35S-]PAPS as sulfate donor by TLC analysis; set-up: species or system Homo sapiens
[2] = substrate: Oc1ccc2nc(-c3ccc(I)cc3)sc2c1; assay: as §1; set-up: species or system Homo sapiens
[3] = substrate: Oc1ccc2ccsc2c1; assay: as §1; set-up: species or system Homo sapiens
[4] = substrate: Oc1ccc2ncoc2c1; assay: as §1; set-up: species or system Homo sapiens
[5] = substrate: Oc1ccc2sccc2c1; assay: as §1; set-up: species or system Homo sapiens
[6] = substrate: Oc1ccc2ccoc2c1; assay: as §1; set-up: species or system Homo sapiens
[7] = substrate: CS(=O)(=O)c1ccc(-c2nc3ccc(O)cc3s2)cc1; assay: as §1; set-up: species or system Homo sapiens
[8] = substrate: Cc1nc2cc(O)ccc2s1; assay: as §1; set-up: species or system Homo sapiens
[9] = substrate: Oc1ccc2nc(-c3ccccc3)sc2c1; assay: as §1; set-up: species or system Homo sapiens
[10] = substrate: N#Cc1ccc(-c2nc3ccc(O)cc3s2)cc1; assay: as §1; set-up: species or system Homo sapiens
[11] = substrate: CC(=O)Nc1ccc(-c2nc3ccc(O)cc3s2)cc1; assay: as §1; set-up: species or system Homo sapiens
[12] = substrate: CNc1ccc(-c2nc3ccc(O)cc3s2)cc1; assay: as §1; set-up: species or system Homo sapiens
[13] = substrate: CN(C)c1ccc(-c2nc3ccc(O)cc3s2)cc1; assay: as §1; set-up: species or system Homo sapiens
[14] = substrate: Oc1ccc2nc(-c3ccc(F)cc3)sc2c1; assay: as §1; set-up: species or system Homo sapiens
[15] = substrate: Oc1ccc2ncsc2c1; assay: as §1; set-up: species or system Homo sapiens
[16] = substrate: Nc1ccc(-c2nc3ccc(O)cc3s2)cc1; assay: as §1; set-up: species or system Homo sapiens
[17] = substrate: Oc1ccc2occc2c1; assay: as §1; set-up: species or system Homo sapiens
[18] = substrate: Cc1nc2ccc(O)cc2s1; assay: as §1; set-up: species or system Homo sapiens
[19] = substrate: CN(C)c1ccc(-c2nc3cc(O)ccc3s2)cc1; assay: as §1; set-up: species or system Homo sapiens
[20] = substrate: CNc1ccc(-c2nc3cc(O)ccc3s2)cc1; assay: as §1; set-up: species or system Homo sapiens
[21] = substrate: O=[N+]([O-])c1ccc(-c2nc3ccc(O)cc3s2)cc1; assay: as §1; set-up: species or system Homo sapiens
[22] = substrate: Oc1ccc2ccsc2c1; assay: (§2) Substrate activity at SULT1A3 (unknown origin) expressed in baculovirus infected Sf9 cells assessed as substrate Km incubated for 15 mins using [35S-]PAPS as sulfate donor by TLC analysis; set-up: species or system Homo sapiens
[23] = substrate: Oc1ccc2ncoc2c1; assay: as §2; set-up: species or system Homo sapiens
[24] = substrate: Oc1ccc2sccc2c1; assay: as §2; set-up: species or system Homo sapiens
[25] = substrate: Oc1ccc2[nH]ccc2c1; assay: as §2; set-up: species or system Homo sapiens
[26] = substrate: Oc1ccc2ccoc2c1; assay: as §2; set-up: species or system Homo sapiens
[27] = substrate: Cc1nc2cc(O)ccc2s1; assay: as §2; set-up: species or system Homo sapiens
[28] = substrate: Oc1ccc2ncsc2c1; assay: as §2; set-up: species or system Homo sapiens
[29] = substrate: Oc1ccc2cc[nH]c2c1; assay: as §2; set-up: species or system Homo sapiens
[30] = substrate: Oc1ccc2occc2c1; assay: as §2; set-up: species or system Homo sapiens
[31] = substrate: Oc1ccc2ccsc2c1; assay: (§3) Substrate activity at SULT1A1 (unknown origin) expressed in baculovirus infected Sf9 cells assessed as substrate Km incubated for 15 mins using [35S-]PAPS as sulfate donor by TLC analysis; set-up: species or system Homo sapiens
[32] = substrate: Oc1ccc2ncoc2c1; assay: as §3; set-up: species or system Homo sapiens
[33] = substrate: Oc1ccc2sccc2c1; assay: as §3; set-up: species or system Homo sapiens
[34] = substrate: Oc1ccc2[nH]ccc2c1; assay: as §3; set-up: species or system Homo sapiens
[35] = substrate: Oc1ccc2ccoc2c1; assay: as §3; set-up: species or system Homo sapiens
[36] = substrate: Cc1nc2cc(O)ccc2s1; assay: as §3; set-up: species or system Homo sapiens
[37] = substrate: Oc1ccc2nc(-c3ccccc3)sc2c1; assay: as §3; set-up: species or system Homo sapiens
[38] = substrate: Oc1ccc2[nH]cnc2c1; assay: as §3; set-up: species or system Homo sapiens
[39] = substrate: Oc1ccc2ncsc2c1; assay: as §3; set-up: species or system Homo sapiens
[40] = substrate: Oc1ccc2cc[nH]c2c1; assay: as §3; set-up: species or system Homo sapiens
[41] = substrate: Oc1ccc2occc2c1; assay: as §3; set-up: species or system Homo sapiens
[42] = substrate: Cc1nc2ccc(O)cc2s1; assay: as §3; set-up: species or system Homo sapiens
[43] = substrate: CN(C)c1ccc(-c2nc3cc(O)ccc3s2)cc1; assay: as §3; set-up: species or system Homo sapiens
[44] = substrate: CNc1ccc(-c2nc3cc(O)ccc3s2)cc1; assay: as §3; set-up: species or system Homo sapiens

B1: Sulfotransferase 2A1 (Homo sapiens) (protein)
chain: MSDDFLWFEGIAFPTMGFRSETLRKVRDEFVIRDEDVIILTYPKSGTNWLAEILCLMHSKGDAKWIQSVPIWERSPWVESEIGYTALSETESPRLFSSHLPIQLFPKSFFSSKAKVIYLMRNPRDVLVSGYFFWKNMKFIKKPKSWEEYFEWFCQGTVLYGSWFDHIHGWMPMREEKNFLLLSYEELKQDTGRTIEKICQFLGKTLEPEELNLILKNSSFQSMKENKMSNYSLLSVDYVVDKAQLLRKGVSGDWKNHFTVAQAEDFDKLFQEKMADLPRELFPWE
Km (not read): 254 µM
Vmax (not read): 0.00019 µmol/min/mg

B2: Sulfotransferase 1E1 (Homo sapiens) (protein)
chain: MNSELDYYEKFEEVHGILMYKDFVKYWDNVEAFQARPDDLVIATYPKSGTTWVSEIVYMIYKEGDVEKCKEDVIFNRIPFLECRKENLMNGVKQLDEMNSPRIVKTHLPPELLPASFWEKDCKIIYLCRNAKDVAVSFYYFFLMVAGHPNPGSFPEFVEKFMQGQVPYGSWYKHVKSWWEKGKSPRVLFLFYEDLKEDIRKEVIKLIHFLERKPSEELVDRIIHHTSFQEMKNNPSTNYTTLPDEIMNQKLSPFMRKGITGDWKNHFTVALNEKFDKHYEQQMKESTLKFRTEI
Km [1]: 0.9 µM
Vmax [1]: 0.00197 µmol/min/mg
Km [2]: 0.52 µM
Vmax [2]: 0.00295 µmol/min/mg
Km [3]: 11.5 µM
Vmax [3]: 0.00287 µmol/min/mg
Km [4]: 525 µM
Vmax [4]: 0.0033 µmol/min/mg
Km [5]: 38 µM
Vmax [5]: 0.00291 µmol/min/mg
Km [6]: 90.9 µM
Vmax [6]: 0.00272 µmol/min/mg
Km [7]: 1.32 µM
Vmax [7]: 0.00357 µmol/min/mg
Km [8]: 15.9 µM
Vmax [8]: 0.0047 µmol/min/mg
Km [9]: 0.99 µM
Vmax [9]: 0.00318 µmol/min/mg
Km [10]: 0.25 µM
Vmax [10]: 0.00433 µmol/min/mg
Km [11]: 2.36 µM
Vmax [11]: 0.00204 µmol/min/mg
Km [12]: 1.6 µM
Vmax [12]: 0.0021 µmol/min/mg
Km [13]: 1.33 µM
Vmax [13]: 0.00149 µmol/min/mg
Km [14]: 0.92 µM
Vmax [14]: 0.00416 µmol/min/mg
Km [15]: 61.3 µM
Vmax [15]: 0.0023 µmol/min/mg
Km [16]: 1.63 µM
Vmax [16]: 0.00278 µmol/min/mg
Km [17]: 177 µM
Vmax [17]: 0.00179 µmol/min/mg
Km [18]: 6.96 µM
Vmax [18]: 0.00329 µmol/min/mg
Km [19]: 0.39 µM
Vmax [19]: 0.00098 µmol/min/mg
Km [20]: 1.31 µM
Vmax [20]: 0.00182 µmol/min/mg
Km [21]: 0.12 µM
Vmax [21]: 0.00343 µmol/min/mg
Vmax (not read): 0.00339 µmol/min/mg and 0.00486 µmol/min/mg
Km [22]: 157 µM
Vmax [22]: 0.00982 µmol/min/mg
Km [23]: 1070 µM
Vmax [23]: 0.0115 µmol/min/mg
Km [24]: 251 µM
Vmax [24]: 0.00612 µmol/min/mg
Km [25]: 575 µM
Vmax [25]: 0.00366 µmol/min/mg
Km [26]: 377 µM
Vmax [26]: 0.00888 µmol/min/mg
Km [27]: 1040 µM
Vmax [27]: 0.0101 µmol/min/mg
Km [28]: 280 µM
Vmax [28]: 0.00809 µmol/min/mg
Km [29]: 2710 µM
Vmax [29]: 0.0195 µmol/min/mg
Km [30]: 385 µM
Vmax [30]: 0.00834 µmol/min/mg

B3: Sulfotransferase 1A1 (Homo sapiens) (protein)
chain: MELIQDTSRPPLEYVKGVPLIKYFAEALGPLQSFQARPDDLLISTYPKSGTTWVSQILDMIYQGGDLEKCHRAPIFMRVPFLEFKAPGIPSGMETLKDTPAPRLLKTHLPLALLPQTLLDQKVKVVYVARNAKDVAVSYYHFYHMAKVHPEPGTWDSFLEKFMVGEVSYGSWYQHVQEWWELSRTHPVLYLFYEDMKENPKREIQKILEFVGRSLPEETVDFVVQHTSFKEMKKNPMTNYTTVPQEFMDHSISPFMRKGMAGDWKTTFTVAQNERFDADYAEKMAGCSLSFRSEL
Km [31]: 0.08 µM
Vmax [31]: 0.00978 µmol/min/mg
Km [32]: 5.5 µM
Vmax [32]: 0.0132 µmol/min/mg
Km [33]: 0.14 µM
Vmax [33]: 0.0112 µmol/min/mg
Km [34]: 6.62 µM
Vmax [34]: 0.0128 µmol/min/mg
Km [35]: 0.18 µM
Vmax [35]: 0.0265 µmol/min/mg
Km [36]: 5.9 µM
Vmax [36]: 0.0193 µmol/min/mg
Km [37]: 0.045 µM
Vmax [37]: 0.00525 µmol/min/mg
Km [38]: 19.3 µM
Vmax [38]: 0.0085 µmol/min/mg
Km [39]: 2.08 µM
Vmax [39]: 0.0103 µmol/min/mg
Km [40]: 0.23 µM
Vmax [40]: 0.0203 µmol/min/mg
Km [41]: 0.62 µM
Vmax [41]: 0.00987 µmol/min/mg
Km [42]: 6.2 µM
Vmax [42]: 0.0103 µmol/min/mg
Km [43]: 0.04 µM
Vmax [43]: 0.011 µmol/min/mg
Km [44]: 0.012 µM
Vmax [44]: 0.0039 µmol/min/mg
Km (not read): 0.17 µM
Vmax (not read): 0.0146 µmol/min/mg
